Columns and labels:
[1] = biological target: RelBs^NTD Y279A (B. subtilis); test: ITC; DarB or DarB variant (200 uM) in the syringe titrated into RelBs^NTD or variant (15 uM) in the cell; 25 °C; 50 mM Hepes pH 7.5, 500 mM KCl, 500 mM NaCl, 10 mM MgCl2, 1 mM TCEP, 0.002% mellitic acid
[2] = biological target: Bacillus subtilis Rel N-terminal domain region (RelBs^NTD; residues 1 to 373) (Bacillus subtilis); test: ITC; DarB or DarB variants in the syringe at 200 μM, RelBs^NTD or variants in the cell at 15 μM; 25°C; 50 mM Hepes pH 7.5, 500 mM KCl, 500 mM NaCl, 10 mM MgCl2, 1 mM TCEP, 0.002% mellitic acid
Rel (Bacillus subtilis) = Rel (Bacillus subtilis) (UniProt O54408); conditions: cited from earlier work

Kd [1] [µM] | Kd [2] [µM] | Substance | Kd (Rel (Bacillus subtilis)) [µM]
4 | 1.4 | Bacillus subtilis DarB (from UniProt O31698 1-147) (natural protein) | –
– | – | DarB (from UniProt O31698) | 0.65
